Source: patent US20020064802
Like-named read-outs stand apart in the source and are kept apart here.

Key:
[1] = test system: VEGF 3a/1 ZFP (NLS-ZFP-VP16-FLAG) (synthetic construct (SP1 backbone)); experiment: cell_activity; settings: 293 cells
[2] = test system: GATA 15.5 ZFP (NLS-ZFP-VP16-FLAG) (synthetic construct (SP1 backbone)); experiment: cell_activity; settings: 293 cells
[3] = test system: VEGF 3a/1 ZFP (NLS-ZFP-VP16-FLAG) (synthetic construct (SP1 backbone)); settings: ChIP anti-FLAG, 293 cells, GAPDH-normalized; 170.4 in Table 7
[4] = test system: GATA 15.5 ZFP (NLS-ZFP-VP16-FLAG) (synthetic construct (SP1 backbone)); settings: ChIP anti-FLAG, 293 cells, GAPDH-normalized; 1.9 in Table 7; control ZFP
[5] = test system: VEGF 3a/1 ZFP (NLS-ZFP-VP16-FLAG) (synthetic construct (SP1 backbone)); settings: ChIP anti-FLAG, 293 cells, GAPDH-normalized
[6] = test system: GATA 15.5 ZFP (NLS-ZFP-VP16-FLAG) (synthetic construct (SP1 backbone)); settings: ChIP anti-FLAG, 293 cells, GAPDH-normalized; designed for a different site

GGGGAGGATCGCGGAGGCTT (double strand) gave an activity (fold luciferase vs NVF) ([1]; integrated reporter, 10 in Table 8) of 18, an activity (fold luciferase vs NVF) ([2]; integrated reporter, 1 in Table 8) of 0.8 and a binding signal (fold enrichment vs NVF) [3] of 74.1. For the same substance, the binding signal (fold enrichment vs NVF) [4] was 0.88.

“GGGGAGGATCGCGGAGGCTT (double strand) [endogenous VEGF-A gene target at +1 accessible region]” gave a binding signal (fold enrichment vs NVF) [5] of 12.1 and an activity (fold VEGF mRNA vs NVF) ([1]; VEGF protein 1.2, mRNA 1.0 and protein 1.5 in Table 9) of 1.6.

“endogenous VEGF-A gene (GATA 15.5 bound site not mapped)” showed a binding signal (fold enrichment vs NVF) [6] of 4.1 and an activity (fold VEGF mRNA vs NVF) ([2]; VEGF protein 1.2, mRNA 2.0 and protein 2.0 in Table 9) of 2.
